Results published in US20160168251A1 (MorphoSys, published 2016).

T1: human NPRA on HEK293 cells bound to ANP (human, UniProt P01160 124-151)
T1 sequence: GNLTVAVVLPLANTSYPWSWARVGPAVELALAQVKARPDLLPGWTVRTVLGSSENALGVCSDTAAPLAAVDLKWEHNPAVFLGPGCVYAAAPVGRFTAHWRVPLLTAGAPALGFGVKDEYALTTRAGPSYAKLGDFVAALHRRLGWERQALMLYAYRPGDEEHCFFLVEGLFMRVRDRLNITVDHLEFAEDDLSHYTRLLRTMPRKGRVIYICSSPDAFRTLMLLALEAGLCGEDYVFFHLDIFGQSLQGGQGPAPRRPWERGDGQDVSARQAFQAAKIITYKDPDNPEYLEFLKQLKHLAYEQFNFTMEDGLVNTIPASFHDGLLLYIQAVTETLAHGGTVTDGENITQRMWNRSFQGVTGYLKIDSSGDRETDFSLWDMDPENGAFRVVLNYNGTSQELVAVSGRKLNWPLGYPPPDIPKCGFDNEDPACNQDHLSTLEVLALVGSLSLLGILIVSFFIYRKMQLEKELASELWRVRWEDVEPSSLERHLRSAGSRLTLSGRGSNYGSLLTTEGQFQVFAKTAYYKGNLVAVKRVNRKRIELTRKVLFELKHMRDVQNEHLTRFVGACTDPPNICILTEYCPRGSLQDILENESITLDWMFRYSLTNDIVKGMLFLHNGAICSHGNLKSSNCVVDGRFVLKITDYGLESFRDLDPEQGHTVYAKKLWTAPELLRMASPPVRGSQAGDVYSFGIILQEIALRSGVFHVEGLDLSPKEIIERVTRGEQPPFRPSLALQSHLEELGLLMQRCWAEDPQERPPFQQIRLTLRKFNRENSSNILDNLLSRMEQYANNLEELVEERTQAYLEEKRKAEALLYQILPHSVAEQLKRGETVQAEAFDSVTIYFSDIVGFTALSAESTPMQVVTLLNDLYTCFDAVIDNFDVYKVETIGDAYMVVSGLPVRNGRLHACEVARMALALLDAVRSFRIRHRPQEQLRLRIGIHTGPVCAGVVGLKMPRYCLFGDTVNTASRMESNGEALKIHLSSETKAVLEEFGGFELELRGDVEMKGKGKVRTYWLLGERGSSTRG
T1 sequence (peptide): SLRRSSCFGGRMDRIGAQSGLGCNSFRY

B1: 5502 Fab (Fab, V domains shown)
VH: QVQLQQSGPGLVKPSQTLSLTCAISGDSVSSRSASWSWIRQSPGRGLEWLGRIYYRSKWYNDYAVSVKSRITINPDTSKNQFSLQLNSVTPEDTAVYYCARMDVPSFRYFDVWGQGTLVTVSS
VL: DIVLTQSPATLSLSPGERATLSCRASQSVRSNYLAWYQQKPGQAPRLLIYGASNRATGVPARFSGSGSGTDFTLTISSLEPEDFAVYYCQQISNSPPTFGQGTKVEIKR
B2: 5591 Fab (Fab, V domains shown)
VH: QVQLQQSGPGLVKPSQTLSLTCAISGDSVSSRSASWSWIRQSPGRGLEWLGRTYYRSHWYYEYAQSVKSRITINPDTSKNQFSLQLNSVTPEDTAVYYCARMDVPSFRYFDVWGQGTLVTVSS
VL: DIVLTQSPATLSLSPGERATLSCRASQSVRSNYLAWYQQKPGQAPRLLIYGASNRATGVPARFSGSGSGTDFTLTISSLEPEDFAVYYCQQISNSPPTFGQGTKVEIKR
B3: 5064 IgG1 (antibody, V domains shown)
VH: QVQLQQSGPGLVKPSQTLSLTCAISGDSVSSRSASWSWIRQSPGRGLEWLGRIYYRSKWYNDYAVSVKSRITINPDTSKNQFSLQLNSVTPEDTAVYYCARMDVPSFRYFDVWGQGTLVTVSS
VL: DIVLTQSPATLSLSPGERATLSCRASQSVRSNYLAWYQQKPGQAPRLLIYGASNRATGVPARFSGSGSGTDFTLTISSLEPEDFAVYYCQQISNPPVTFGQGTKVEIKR
notes: Human IgG1 format
B4: 5592 Fab (Fab, V domains shown)
VH: QVQLQQSGPGLVKPSQTLSLTCAISGDSVSSRSASWSWIRQSPGRGLEWLGRTYYRSHWYYEYAQSVKSRITINPDTSKNQFSLQLNSVTPEDTAVYYCARMDVPSFRYFDVWGQGTLVTVSS
VL: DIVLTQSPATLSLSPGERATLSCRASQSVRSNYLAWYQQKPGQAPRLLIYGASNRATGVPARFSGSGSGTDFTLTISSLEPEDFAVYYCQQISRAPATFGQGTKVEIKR

Experiments:
[1] = biological target: T1, human NPRA on HEK293 cells bound to ANP; experiment: cell-based or functional assay
[2] = biological target: T2, NPRA-Fc fusion protein bound to ANP (human, UniProt P01160 124-151); experiment: SPR (Biacore 3000), NPRA-Fc amine-coupled on CM5, analyte with 100 nM human ANP
T2 construct: mature; Receptor-ligand complex; 'human ANP' is stated for Biacore, plain 'ANP' for ELISA and HXMS; also called NPRA-Fc+ANP

[3] = biological target: T1, human NPRA on HEK293 cells bound to ANP; experiment: FACS, HEK NPRA cells with ANP

Row | Binder | EC50 of ANP, cGMP production in HEK NPRA cells, with 400 nM Fab [1] [nM] | factor by which the potency of ANP is enhanced (cGMP, 400 nM Fab) [1] [fold] | Kd [2] [nM] | koff [2] [s⁻¹] | kon [2] [M⁻¹ s⁻¹] | EC50 (read off the curve) [3] [nM]
1 | B1 | 0.3 | 10 |  |  |  | 
2 | B2 |  |  | 1.16 | 0.00103 | 884000 | 
3 | B3 |  |  |  |  |  | ~0.5
4 | B4 |  |  | 0.426 | 0.000369 | 868000 | 
